Here are results for three variants from PMC9342958.

First the molecules themselves.
B1: BCL10 full-length fused to mEos3.1 [human] / itself (parent)
chain: MEPTAPSLTEEDLTEVKKDALENLRVYLCEKIIAERHFDHLRAKKILSREDTEEISCRTSSRKRAGKLLDYLQENPKGLDTLVESIRREKTQNFLIQKITDEVLKLRNIKLEHLKGLKCSSCEPFPDGATNNLSRSNSDESNFSEKLRASTVMYHPEGESSTTPFFSTNSSLNLPVLEVGRTENTIFSSTTLPRPGDPGAPPLPPDLQLEEEGTCANSSEMFLPLRSRTVSRQ

In the assay the parent is B1. Briefly: DAmFRET (Weibull fit) in yeast cells, homotypic self-assembly. To be noted: with itself; read off a plot.
Consider MEPTAPSLTEEDLTEVKKDALENLRVYLCEKIIAERHFDHLRAKKILSREDTEEISCGTSSRKRAGKLLDYLQENPKGLDTLVESIRREKTQNFLIQKITDEVLKLRNIKLEHLKGLKCSSCEPFPDGATNNLSRSNSDESNFSEKLRASTVMYHPEGESSTTPFFSTNSSLNLPVLEVGRTENTIFSSTTLPRPGDPGAPPLPPDLQLEEEGTCANSSEMFLPLRSRTVSRQ [chain 1 R58G], for which the screen value was found to be 0.34.
For the variant MEPTAPSLTEEDLTEVKKDALENLRVYLCEKIIAERHFDHLRAKKILSREDTEEISCQTSSRKRAGKLLDYLQENPKGLDTLVESIRREKTQNFLIQKITDEVLKLRNIKLEHLKGLKCSSCEPFPDGATNNLSRSNSDESNFSEKLRASTVMYHPEGESSTTPFFSTNSSLNLPVLEVGRTENTIFSSTTLPRPGDPGAPPLPPDLQLEEEGTCANSSEMFLPLRSRTVSRQ [chain 1 R58Q], the screen value stood at 0.38.
Consider MEPTAPSLTEEDLTEVKKDALENLRVYLCEKIIAERHFDHLRAKKILSREDTEEISCLTSSRKRAGKLLDYLQENPKGLDTLVESIRREKTQNFLIQKITDEVLKLRNIKLEHLKGLKCSSCEPFPDGATNNLSRSNSDESNFSEKLRASTVMYHPEGESSTTPFFSTNSSLNLPVLEVGRTENTIFSSTTLPRPGDPGAPPLPPDLQLEEEGTCANSSEMFLPLRSRTVSRQ [chain 1 R58L], for which the screen value turned out to be 0.35.
